Reference: patent publication US20020031761A1, “Binding moieties for human parvovirus B19” (priority 1998, published 2002)
No end group written: not given here.

Assays:
VP1-VP2 = VP1-VP2 (Human parvovirus B19, UniProt P07299); assay: Relative binding ELISA, constant phage against decreasing amounts of VP1-VP2; details: signal interpolated at VP1-VP2 1:10 dilution; binding data normalized as percent of OD 630 nm
Experimental: Based on the ELISA data and the sequence similarities within each library, the 18 isolates (Tables 1-3) were selected and evaluated further with respect to their binding characteristics to VP1-VP2. Relative binding of each isolate was studied by ELISA. Each selected phage isolate, held at a constant amount, was contacted with decreasing amounts per well of VP1-VP2, the amounts coating each dextrin well varying from 2 μl down to 0.001 μl. Bound phage were detected as described before using polyclonal anti-phage antibody. […] Using VP1-VP2 at 1:10 dilution as an arbitrary point, a value for the signal was interpolated, and the relative binding strengths are reflected in Tables 1-3, above.

[1] = biological target: VP1-VP2 (purified, recombinant B19 capsid proteins VP1 and VP2) (Human parvovirus B19, UniProt P07299); assay: ELISA of individual phage isolates for binding to VP1-VP2; details: phage isolate 10^9 pfu per well; VP1-VP2 2 μl per well on dextrin plates; HRP anti-M13 antibody, TMB
Description: For screening libraries to isolate binding moieties for parvovirus B19, a surrogate target was obtained, consisting of purified, recombinant B19 capsid proteins VP 1 and VP2 (VP1-VP2). Suitable preparations of VP1-VP2 can be made according to methods described in U.S. Pat. No. 5,498,413 or WO 91/12269, incorporated herein by reference. Prior to screening against phage display libraries, partially purified VP1-VP2 was immobilized on dextrin-coated microtiter wells (Recti-Bind™; Pierce Chemical Co.) and tested using standard ELISA techniques, to ensure that under the screening conditions there was a low background level of phage recovered.
From convergent screens of phage display libraries, eluted phage were propagated and 376 phage isolates were selected randomly and individually tested for binding to VP1-VP2 by standard ELISA techniques, using a polyclonal anti-phage antibody to detect bound phage. Briefly, VP1-VP2 (2 μl per well) was coated on dextrin plates, blocked with BSA, and individual phage isolates were added to the wells (50 μl, 10^9 pfu per well). After washing, bound phage were incubated with the detection anti-phage antibodies (100 μl per well HRP-conjugated anti-M13 antibody in PBS-Tween (Pharmacia Inc.)). […] The bound antibody was detected by adding 100 μl per well of two-component TMB (tetramethylbenzidine; Kirkegaard & Perry). […]

“A F C W L W P G N C L H (AFCWLWPGNCLH; not fully specified; cysteine pairing not given here) [C01]” showed a relative binding (VP1-VP2) of 44 and an ELISA signal [1] of 1.5.
